Laboratory results as given in article PMC10027671.

What was measured:
Adnectin1-tFhuA [1] = assay: single-channel electrical recording (nanopore, resistive pulse); single Adnectin1-tFhuA sensor in a planar lipid bilayer, 20 nM EGFR cis, in the presence of 5% (v/v) fetal bovine serum; +20 mV; filtered at 500 Hz
Adnectin1-tFhuA [2] = assay: single-channel electrical recording (nanopore, resistive pulse); single Adnectin1-tFhuA sensor in a planar lipid bilayer, EGFR added to the cis side; +20 mV; 300 mM KCl, 10 mM Tris-HCl, pH 8.0, no TCEP; 24 ± 1 °C; two-exponential capture durations (short- and long-lived)

ectodomain of epidermal growth factor receptor (EGFR) (from UniProt P00533 25-645) (domain or fragment)
tau off-1 at 20 nM EGFR with 5% FBS (Fig. 5k) (Adnectin1-tFhuA [1]): 0.036 s
tau off-2 (mean duration of long-lived blockades) with 5% FBS (Adnectin1-tFhuA [1]): 0.93 s
tau off-2 at 20 nM EGFR with 5% FBS (Fig. 5k) (Adnectin1-tFhuA [1]): 0.81 s
tau on (released duration) at 20 nM EGFR with 5% FBS (Fig. 5j) (Adnectin1-tFhuA [1]): 0.607 s
tau on-2 with 5% FBS (Adnectin1-tFhuA [1]): 1.7 s
tau off-1 at 20 nM EGFR, without FBS (Fig. 5i) (Adnectin1-tFhuA [2]): 0.044 s
tau off-2 at 20 nM EGFR, without FBS (Fig. 5i) (Adnectin1-tFhuA [2]): 0.982 s
tau on (released duration) at 10 nM EGFR (Adnectin1-tFhuA [2]): 0.78 s
tau on (released duration) at 20 nM EGFR (Adnectin1-tFhuA [2]): 0.42 s
tau on (released duration) at 20 nM EGFR, without FBS (Fig. 5h) (Adnectin1-tFhuA [2]): 0.4 s
tau on (released duration) at 40 nM EGFR (Adnectin1-tFhuA [2]): 0.25 s
